Data: US20060292657A1, “Phex substrates and methods using same” (priority 2003, published 2006)
Values joined by “and” are separate entries in the source; they are usually repeats but may differ in a detail not shown here. Equal entries are not always repeated. Square brackets hold non-standard residues; d marks the D form. Peptide text beside a SMILES is read from it. * marks the point of attachment. EDDnp = O=[N+]([O-])c1ccc(NCCN*)c([N+](=O)[O-])c1; 2Abz = Nc1ccccc1C(=O)O

Legend:
[1] = molecular target: T1, membrane-bound PHEX (mPHEX) (Homo sapiens, UniProt P78562); experiment: Membrane-bound PHEX activity with NEP-specific substrate and inhibitor; assay type: biochemical; conditions: 10 μM substrate, 30 minutes
T1 construct: expressed in transfected cells; host or cells: LLC-PK1 (porcine kidney cells)
Experimental: (§1) FIG. 4 graphically illustrates the activity of PHEX in the presence of NEP-specific substrate and inhibitor. NEP, secPHEX and membrane-bound PHEX (mPHEX) activities were measured after 30 minutes of incubation in presence of either 10 μM Abz-DRRL-EDDnp (SEQ ID NO:8) (A) or 10 μM Abz-GFSDYK(Dnp)-OH (SEQ ID NO:3) (B). Fluorescence detection (AFU) at γem=420 nm and γex=320 nm was determined as described under the heading “Experimental Procedures” below. When present, thiorphan, a NEP-specific inhibitor, was at a concentration of 10^−6 M. Data are a compilation of three different experiments;
(§2) The activities of membrane-bound PHEX and secPHEX were also compared with the NEP-specific substrate Abz-DRRL-EDDnp (SEQ ID NO:8) (46).

secPHEX = molecular target: T2, secPHEX (Homo sapiens, UniProt P78562); experiment: secPHEX activity with NEP-specific substrate and inhibitor; assay type: biochemical; conditions: 10 μM substrate, 30 minutes
T2 construct: pure soluble form of PHEX (secPHEX); made in house
T2 sequence (P78562 46-749 limits assumed): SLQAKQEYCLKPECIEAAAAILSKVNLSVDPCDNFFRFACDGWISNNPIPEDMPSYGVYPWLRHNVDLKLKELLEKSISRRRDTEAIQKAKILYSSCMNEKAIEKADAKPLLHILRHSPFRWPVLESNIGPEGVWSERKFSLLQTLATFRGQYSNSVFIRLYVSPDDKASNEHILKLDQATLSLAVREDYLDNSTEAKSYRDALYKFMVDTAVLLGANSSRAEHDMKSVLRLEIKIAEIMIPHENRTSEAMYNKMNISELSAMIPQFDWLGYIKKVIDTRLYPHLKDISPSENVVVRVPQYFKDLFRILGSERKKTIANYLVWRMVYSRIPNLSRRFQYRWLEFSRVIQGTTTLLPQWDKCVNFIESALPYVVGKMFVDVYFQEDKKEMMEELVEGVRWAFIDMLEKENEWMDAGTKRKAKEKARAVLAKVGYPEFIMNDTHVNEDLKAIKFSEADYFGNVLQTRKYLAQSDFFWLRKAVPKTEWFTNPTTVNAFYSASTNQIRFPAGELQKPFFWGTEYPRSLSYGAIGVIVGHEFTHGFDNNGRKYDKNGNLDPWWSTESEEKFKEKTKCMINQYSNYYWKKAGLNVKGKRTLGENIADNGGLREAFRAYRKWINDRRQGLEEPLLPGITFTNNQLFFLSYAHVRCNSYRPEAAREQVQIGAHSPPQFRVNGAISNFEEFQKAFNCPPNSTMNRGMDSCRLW
Experimental: as §1, §2

Abz-DRRL-EDDnp = molecular target: T3, Abz-DRRL-EDDnp
T3 chain: DRRL

Abz-GFSEYK(Dnp)-NH2 = molecular target: T4, Abz-GFSEYK(Dnp)-NH2
T4 chain: GFSEYK

Abz-R441-GLDNEIQ-EDDnp = molecular target: T5, Abz-R441-GLDNEIQ-EDDnp
T5 chain: RGLDNEIQ

Abz-GFSDYK(Dnp)-OH = molecular target: T6, Abz-GFSDYK(Dnp)-OH
T6 chain: GFSDYK

Abz-A110-WLDSGVQ-EDDnp = molecular target: T7, Abz-A110-WLDSGVQ-EDDnp
T7 chain: AWLDSGVQ

Abz-GP197-QRDSQAQ-EDDnp = molecular target: T8, Abz-GP197-QRDSQAQ-EDDnp
T8 chain: GPQRDSQAQ

Abz-L94-MMDFRGQ-EDDnp = molecular target: T9, Abz-L94-MMDFRGQ-EDDnp
T9 chain: LMMDFRGQ

Abz-R76-SEDAGFQ-EDDnp = molecular target: T10, Abz-R76-SEDAGFQ-EDDnp
T10 chain: RSEDAGFQ

Abz-I232-PSDFEGQ-EDDnp = molecular target: T11, Abz-I232-PSDFEGQ-EDDnp
T11 chain: IPSDFEGQ

Abz-S513-SDSGSQ-EDDnp = molecular target: T12, Abz-S513-SDSGSQ-EDDnp
T12 chain: SSDSGSQ

Abz-G337-SNDIMGQ-EDDnp = molecular target: T13, Abz-G337-SNDIMGQ-EDDnp
T13 chain: GSNDIMGQ

Abz-GFSEYK(Dnp)-OH = molecular target: T14, Abz-GFSEYK(Dnp)-OH
T14 chain: GFSEYK

Abz-GFSDYQ-EDDnp = molecular target: T15, Abz-GFSDYQ-EDDnp
T15 chain: GFSDYQ

Abz-S212-AEDNSPQ-EDDnp = molecular target: T16, Abz-S212-AEDNSPQ-EDDnp
T16 chain: SAEDNSPQ

Abz-R506-RDDSSEQ-EDDnp = molecular target: T17, Abz-R506-RDDSSEQ-EDDnp
T17 chain: RRDDSSEQ

[2] = molecular target: T18, Abz-R175-RHTQSAEDDSERQ-EDDnp
T18 chain: RRHTQSAEDDSERQ

Abz-L134-ELDSRQ-EDDnp = molecular target: T19, Abz-L134-ELDSRQ-EDDnp
T19 chain: LELDSRQ

[3] = molecular target: T20, Abz-R175-RHTRSAEDDSERQ-EDDnp
T20 chain: RRHTRSAEDDSERQ

Abz-N449-EMDSFNQ-EDDnp = molecular target: T21, Abz-N449-EMDSFNQ-EDDnp
T21 chain: NEMDSFNQ

Abz-T294-HLDTKKQ-EDDnp = molecular target: T22, Abz-T294-HLDTKKQ-EDDnp
T22 chain: THLDTKKQ

Abz-N122-GYDVYHQ-EDDnp = molecular target: T23, Abz-N122-GYDVYHQ-EDDnp
T23 chain: NGYDVYHQ

Abz-GFSDYK(Dnp)-NH2 = molecular target: T24, Abz-GFSDYK(Dnp)-NH2
T24 chain: GFSDYK

Abz-D125-HLSDTSTQ-EDDnp = molecular target: T25, Abz-D125-HLSDTSTQ-EDDnp
T25 chain: DHLSDTSTQ

Abz-G386-SSDAAEQ-EDDnp = molecular target: T26, Abz-G386-SSDAAEQ-EDDnp
T26 chain: GSSDAAEQ

T1 sequence (P78562 whole entry): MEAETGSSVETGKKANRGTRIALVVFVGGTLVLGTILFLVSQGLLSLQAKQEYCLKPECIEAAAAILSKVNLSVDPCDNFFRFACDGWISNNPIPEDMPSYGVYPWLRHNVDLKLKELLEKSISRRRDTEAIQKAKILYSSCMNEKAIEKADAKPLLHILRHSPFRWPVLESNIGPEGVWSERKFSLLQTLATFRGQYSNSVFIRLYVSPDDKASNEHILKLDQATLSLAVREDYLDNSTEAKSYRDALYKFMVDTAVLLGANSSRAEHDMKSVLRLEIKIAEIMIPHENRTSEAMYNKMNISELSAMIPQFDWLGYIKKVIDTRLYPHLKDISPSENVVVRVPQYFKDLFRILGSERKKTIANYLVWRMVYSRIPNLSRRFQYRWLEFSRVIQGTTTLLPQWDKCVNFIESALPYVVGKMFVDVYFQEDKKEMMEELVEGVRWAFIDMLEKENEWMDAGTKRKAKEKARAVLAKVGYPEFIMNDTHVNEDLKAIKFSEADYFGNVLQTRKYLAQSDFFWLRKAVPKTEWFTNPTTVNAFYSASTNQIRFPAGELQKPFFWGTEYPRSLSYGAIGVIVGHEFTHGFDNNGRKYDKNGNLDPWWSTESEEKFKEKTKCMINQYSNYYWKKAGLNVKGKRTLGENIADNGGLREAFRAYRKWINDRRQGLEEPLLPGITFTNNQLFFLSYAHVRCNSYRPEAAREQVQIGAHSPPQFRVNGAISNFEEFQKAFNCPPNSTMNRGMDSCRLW

Molecule: CC(C)C[C@H](NC(=O)[C@H](CCCNC(=N)N)NC(=O)[C@H](CCCNC(=N)N)NC(=O)[C@H](CC(=O)O)NC(=O)c1ccccc1N)C(=O)NCCNc1ccc([N+](=O)[O-])cc1[N+](=O)[O-] [Abz-DRRL-EDDnp] (H-[2Abz]DRRL-EDDnp)
- hydrolysis of NEP-specific substrate [1]: Neither enzyme hydrolyzed this substrate
- hydrolysis of NEP-specific substrate (secPHEX): Neither enzyme hydrolyzed this substrate

B1: human recombinant secPHEX (pure soluble form of PHEX) (protein)
chain: SLQAKQEYCLKPECIEAAAAILSKVNLSVDPCDNFFRFACDGWISNNPIPEDMPSYGVYPWLRHNVDLKLKELLEKSISRRRDTEAIQKAKILYSSCMNEKAIEKADAKPLLHILRHSPFRWPVLESNIGPEGVWSERKFSLLQTLATFRGQYSNSVFIRLYVSPDDKASNEHILKLDQATLSLAVREDYLDNSTEAKSYRDALYKFMVDTAVLLGANSSRAEHDMKSVLRLEIKIAEIMIPHENRTSEAMYNKMNISELSAMIPQFDWLGYIKKVIDTRLYPHLKDISPSENVVVRVPQYFKDLFRILGSERKKTIANYLVWRMVYSRIPNLSRRFQYRWLEFSRVIQGTTTLLPQWDKCVNFIESALPYVVGKMFVDVYFQEDKKEMMEELVEGVRWAFIDMLEKENEWMDAGTKRKAKEKARAVLAKVGYPEFIMNDTHVNEDLKAIKFSEADYFGNVLQTRKYLAQSDFFWLRKAVPKTEWFTNPTTVNAFYSASTNQIRFPAGELQKPFFWGTEYPRSLSYGAIGVIVGHEFTHGFDNNGRKYDKNGNLDPWWSTESEEKFKEKTKCMINQYSNYYWKKAGLNVKGKRTLGENIADNGGLREAFRAYRKWINDRRQGLEEPLLPGITFTNNQLFFLSYAHVRCNSYRPEAAREQVQIGAHSPPQFRVNGAISNFEEFQKAFNCPPNSTMNRGMDSCRLW
- substrate hydrolysis (fluorescence) (Abz-DRRL-EDDnp): Neither enzyme hydrolyzed this substrate
- hydrolysis by PHEX (Abz-GFSEYK(Dnp)-NH2): Resistant
- Km (Abz-R441-GLDNEIQ-EDDnp): 7 µM
- kcat (Abz-R441-GLDNEIQ-EDDnp): 0.03 s⁻¹
- kcat/Km (Abz-R441-GLDNEIQ-EDDnp): 4.3 mM⁻¹ s⁻¹
- Km (Abz-GFSDYK(Dnp)-OH): 3 µM and 5×10^-6 M and 10×10^-6 M, for secPHEX and membrane-bound PHEX, respectively
- kcat (Abz-GFSDYK(Dnp)-OH): 0.5 s⁻¹
- kcat/Km (Abz-GFSDYK(Dnp)-OH): 167 mM⁻¹ s⁻¹
- substrate hydrolysis (fluorescence) (Abz-GFSDYK(Dnp)-OH): degradation of the substrate was observed
- Km (Abz-A110-WLDSGVQ-EDDnp): 1.5 µM
- kcat (Abz-A110-WLDSGVQ-EDDnp): 0.04 s⁻¹
- kcat/Km (Abz-A110-WLDSGVQ-EDDnp): 26.7 mM⁻¹ s⁻¹
- Km (Abz-GP197-QRDSQAQ-EDDnp): 47 µM
- kcat (Abz-GP197-QRDSQAQ-EDDnp): 0.2 s⁻¹
- kcat/Km (Abz-GP197-QRDSQAQ-EDDnp): 4.3 mM⁻¹ s⁻¹
- Km (Abz-L94-MMDFRGQ-EDDnp): 17 µM
- kcat (Abz-L94-MMDFRGQ-EDDnp): 0.8 s⁻¹
- kcat/Km (Abz-L94-MMDFRGQ-EDDnp): 45 mM⁻¹ s⁻¹
- Km (Abz-R76-SEDAGFQ-EDDnp): 4.1 µM
- kcat (Abz-R76-SEDAGFQ-EDDnp): 0.06 s⁻¹
- kcat/Km (Abz-R76-SEDAGFQ-EDDnp): 14.6 mM⁻¹ s⁻¹
- kcat/Km (pseudo-first order conditions) (Abz-I232-PSDFEGQ-EDDnp): 80 mM⁻¹ s⁻¹
- Km (Abz-S513-SDSGSQ-EDDnp): 31.6 µM
- kcat (Abz-S513-SDSGSQ-EDDnp): 0.2 s⁻¹
- kcat/Km (Abz-S513-SDSGSQ-EDDnp): 7.1 mM⁻¹ s⁻¹
- Km (Abz-G337-SNDIMGQ-EDDnp): 13 µM
- kcat (Abz-G337-SNDIMGQ-EDDnp): 0.01 s⁻¹
- kcat/Km (Abz-G337-SNDIMGQ-EDDnp): 0.8 mM⁻¹ s⁻¹
- kcat/Km (pseudo first-order conditions) (Abz-GFSEYK(Dnp)-OH): 9 mM⁻¹ s⁻¹
- Km (Abz-GFSDYQ-EDDnp): 13.3 µM
- kcat (Abz-GFSDYQ-EDDnp): 0.6 s⁻¹
- kcat/Km (Abz-GFSDYQ-EDDnp): 45.1 mM⁻¹ s⁻¹
- Km (Abz-S212-AEDNSPQ-EDDnp): 22 µM
- kcat (Abz-S212-AEDNSPQ-EDDnp): 0.3 s⁻¹
- kcat/Km (Abz-S212-AEDNSPQ-EDDnp): 13.6 mM⁻¹ s⁻¹
- Km (Abz-R506-RDDSSEQ-EDDnp): 5.3 µM
- kcat (Abz-R506-RDDSSEQ-EDDnp): 0.5 s⁻¹
- kcat/Km (Abz-R506-RDDSSEQ-EDDnp): 94.3 mM⁻¹ s⁻¹
- Km [2]: 1.7 µM
- kcat [2]: 0.15 s⁻¹
- kcat/Km [2]: 88.2 mM⁻¹ s⁻¹
- Km (Abz-L134-ELDSRQ-EDDnp): 0.9 µM
- kcat (Abz-L134-ELDSRQ-EDDnp): 0.05 s⁻¹
- kcat/Km (Abz-L134-ELDSRQ-EDDnp): 55.5 mM⁻¹ s⁻¹
- Km [3]: 3 µM
- kcat [3]: 0.2 s⁻¹
- kcat/Km [3]: 66.7 mM⁻¹ s⁻¹
- Km (Abz-N449-EMDSFNQ-EDDnp): 38 µM
- kcat (Abz-N449-EMDSFNQ-EDDnp): 0.3 s⁻¹
- kcat/Km (Abz-N449-EMDSFNQ-EDDnp): 7.9 mM⁻¹ s⁻¹
- Km (Abz-T294-HLDTKKQ-EDDnp): 15 µM
- kcat (Abz-T294-HLDTKKQ-EDDnp): 0.02 s⁻¹
- kcat/Km (Abz-T294-HLDTKKQ-EDDnp): 1.3 mM⁻¹ s⁻¹
- Km (Abz-N122-GYDVYHQ-EDDnp): 9 µM
- kcat (Abz-N122-GYDVYHQ-EDDnp): 0.01 s⁻¹
- kcat/Km (Abz-N122-GYDVYHQ-EDDnp): 1.1 mM⁻¹ s⁻¹
- Km (Abz-GFSDYK(Dnp)-NH2): 53.2 µM
- fold decrease in catalytic efficiency against Abz-GFSDYK(Dnp)-OH (Abz-GFSDYK(Dnp)-NH2): a 6-fold decrease in catalytic efficiency due to its low affinity for the enzyme
- kcat (Abz-GFSDYK(Dnp)-NH2): 1.3 s⁻¹
- kcat/Km (Abz-GFSDYK(Dnp)-NH2): 24.4 mM⁻¹ s⁻¹
- Km (Abz-D125-HLSDTSTQ-EDDnp): 1.3 µM
- kcat (Abz-D125-HLSDTSTQ-EDDnp): 0.1 s⁻¹
- kcat/Km (Abz-D125-HLSDTSTQ-EDDnp): 77 mM⁻¹ s⁻¹
- Km (Abz-G386-SSDAAEQ-EDDnp): 2.4 µM
- kcat (Abz-G386-SSDAAEQ-EDDnp): 0.3 s⁻¹
- kcat/Km (Abz-G386-SSDAAEQ-EDDnp): 125 mM⁻¹ s⁻¹
